The target of test [1] is T1, α5β1 (Homo sapiens, UniProt P08648). Kind of test: ITGA5 peptide selection, overlapping fibronectin peptides displayed on membrane. Format: binding. More on the design: purchased R&D systems. To be noted: peptides attached by C-terminal on membrane, 5 μg/ml α5β1. On the procedure:
Peptides were attached to their c-terminal site using stable linker. […] The peptide-displaying […] membrane was soaked in methanol for 1 minute and rinsed in Tris-buffered saline (TBS) and washed 3 times. Then, the membrane was blocked with 3% BSA in 0.05% TWEEN®-20 containing TBS (TBST) for 3 hours at room temperature. Then, the membrane was washed for 10 minutes with TBST and incubated with 5 μg/ml α5β1 human recombinant protein (R&D systems) in 3% BSA in TBST for 1 hour at room temperature and then overnight at 4° C. Subsequently, the membrane was washed 3 times with TBST. Thereafter, the bound receptor to the membrane was transferred to the PVDF membrane. To achieve this, first, the PVDF membrane was soaked in methanol for 1 minute and then blocked with 5% skimmed fat milk for 2 hours. Then, the membrane was incubated with primary anti-alpha5 integrin antibody (Sigma-Aldrich) for overnight in 5% skimmed milk. The membrane was washed 3 times with TBST and then incubated with anti-rabbit-HRP secondary antibody (Dako), washed and developed with chemiluminescence detection kit.

For test [2], the system named is primary human pancreatic stellate cells. Kind of test: AXI-I-PEG-FITC binding assay, flow cytometry. Format: cell-based. Also noted: unit not given here. To be noted: suspended PSCs, 1 hour at 4° C. On the procedure: PSCs were trypsinized using trypsin-EDTA solution and cell numbers were diluted to 4×10^4 cells/ml. Cells were incubated at 37° C. for 30 minutes to allow receptor recovery. Then different concentrations of AXI-I-FITC was added to the cells containing 2% FBS and incubated at 4° C. for 60 minutes. Thereafter, cells were centrifuged at 1500 rpm at 4° C. for 10 minutes. Supernatant was removed and cells were washed 3 times with PBS and then were fixed with 0.5% formaldehyde for 1 hour at 4° C. and measured with flow cytometry for fluorescence.
On the technique in general: Flow cytometry measures light scatter and fluorescence of single cells or particles in a stream.

Test [3] addresses T1, α5β1. The experiment in a line: Binding of FITC-labeled peptide to coated control receptor α5β1. To be noted: similar to empty wells. On the procedure: (§1) Purified ITGA11 receptor (α11β1; 100 μg/ml—stock; R&D systems) was diluted to 5 μg/ml with 1×PBS. 96-well ELISA White Maxisorb plate (Nunc) was coated with 50 μl of 5 μg/ml ITGA11 (or as control α5β1) receptor for overnight at 4° C. Then, wells were blocked for 3-4 hours with 200 μl of blocking buffer (1×PBS containing 5% BSA). Wells were washed three times with 200 μl of washing buffer (1×PBS containing 0.5% BSA and 0.05% TWEEN®-20). Peptides conjugated with FITC were diluted to different concentrations in washing buffer and then added to the plate and incubated at 37° C. for 1 hour. In addition, the binding of the peptide was blocked by co-incubation with 10× higher amount of unlabeled peptide. Subsequently, wells were washed three times with washing buffer. Then, 100 μl of 1×PBS was added and plates were read at 485 nm/520 nm with a fluorescence plate reader.

Another test has as its target T2, ITGA11 receptor (α11β1) (Homo sapiens, UniProt Q9UKX5).
T2 construct: purchased R&D systems
The experiment in a line: Binding of FITC-labeled peptides to coated ITGA11 receptor. To be noted: FITC-labeled peptide, 37° C. 1 hour. As for the experimental part: as §1

In test [4] the test system is LX2 hepatic stellate cells. The experiment in a line: Cell binding experiment, fluorescence microscopy. To be noted: FITC-labeled peptides 20 μM, 2 hours, room temperature. The test is classed as cell-based, human. As for the experimental part: Human hepatic stellate cells (LX2, 15,000 cells/well) were cultured overnight in permanox Lab-Tek 8-well chamber slides (Nunc). After overnight incubation, cells were washed 3× with 0.5% BSA containing medium and then FITC-labeled peptides (20 μM) was added and incubated at room temperature for 2 hours with intermittent shaking. The cells were then washed 3× with 0.5% BSA containing medium and 2×PBS. Thereafter, cells were fixed with 4% paraformaldehyde (prepared in 1×PBS) for 20 minutes followed by 3 times washing with 1×PBS. Cells were then mounted with mounting medium with DAPI (vector labs) and visualized under the fluorescence microscope (Nikon E600). For phalloidin staining, cells after fixation were incubated with TRITC-conjugated Phalloidin (1:1000 prepared in 1×PBS containing 0.1% TRITON-X® 100) for 10 minutes. Then, cells were washed thrice with PBS and mounted with DAPI-containing mounting medium.

Test [5] concerns the target T1, α5β1. Kind of test: Peptide binding study on the coated receptor. To be noted: for binding to the coated α5β1 receptor: PEG(6)-Fluorescein labeled peptide. On the procedure:
The purified human recombinant α5β1 or α11β1 receptors (5 μg/ml in PBS) were coated onto 96-well ELISA plates (White Maxisorb-Nunc) by incubating overnight at 4° C. Then, the wells were blocked with blocking buffer (5% (w/v) BSA, 150 mM Nacl, 25 mM Tris) for 2 hours at room temperature. Then, the wells were washed three times with 200 μl of washing buffer (150 mM Nacl, 25 mM Tris-base, 0.005% TWEEN® 20, 0.5% BSA). Thereafter, the peptides conjugated with PEG(6)-FITC were diluted to different concentrations in washing buffer. For the competitive studies, the wells were co-incubated with 10-fold higher amount of unlabeled peptides. The plates were incubated at 37° C. for 60 minutes. Then, the wells were washed three times with washing buffer and subsequently, the plates were read for the fluorescein signal Ex/Em 485 nm/520 nm using a fluorescent plate reader (Perkin Elmer).

Test [6] has as its system human skin fibroblasts BJhtert. Kind of test: Scratch (wound) migration of human skin fibroblasts. Format: cell-based. To be noted: after 24 hours. As for the experimental part: FIG. 15: Effect of peptides on migration of human fibroblasts. Human skin fibroblasts BJhtert were grown to full confluency and a scratch (wound) was made and effects of peptides were determined on the wound closure (migration of fibroblasts) after 24 hours. […] (1. SEQ ID NO:8, 2. SEQ ID NO: 11, 3. SEQ ID NO:62, 4. SEQ ID NO:63, 5. SEQ ID NO: 64, 6. SEQ ID NO:76, and 7. SEQ ID NO:68.)

In test [7] the test system is human primary pancreatic stellate cells (PSCs). The experiment in a line: TGF-β1 activation of pancreatic stellate cells. To be noted: TGFβ1-activated PSCs, immunostaining, 20 μM. Format: cell-based. On the procedure: Human primary pancreatic stellate cells (PSCs) were obtained from ScienCell (Carlsbad, Calif.) and were cultured in specified medium provided by the manufacturer, supplemented with penicillin/streptomycin. Cells were used less than the passage 9 and seeded on a Poly-L-Lysine-coated plate.
PSCs were seeded into a 12-well plate (6×10^4 cells/well, for gene expression) or 24-well plate (for staining) in complete medium. After 24 hours, cells were starved in serum-free medium and then after 24 hours, they were added with TGF-β1 (5 ng/ml) with/without the peptide.
After 24 hours of incubation, cells were lysed with the lysis buffer and total RNA was isolated using the GenElute™ Mammalian Total RNA Miniprep Kit. The RNA amount was measured by a NanoDrop® ND-1000 Spectrophotometer (Wilmington, Del.). Subsequently, cDNA was synthesized with iScript™ cDNA Synthesis Kit (BioRad, Veenendaal, The Netherlands). 10 ng cDNA was used for each PCR reaction. The real-time qPCR primers for human αSMA and RPS18 were purchased from Sigma (The Netherlands). Gene expression levels were normalized to the expression of the house-keeping gene RPS18s.
For immunostaining, the cells were washed and fixed with acetone-methanol and processed for immunocytochemical staining.
For immunocytostaining, cells were fixed with acetone-methanol (1:1) at −20° C. for 30 minutes and then dried and rehydrated for 10 minutes. […]

A further test has as its target α11β1 receptor (Homo sapiens, UniProt Q9UKX5). The experiment in a line: Peptide microarray binding, alanine scanning and chain length scan of AXI-I. To be noted: receptor 10 μg/ml. On the procedure: Peptide microarray was prepared by conjugating peptides at their N-terminal to a glass slide using a PEG linker. […] For the binding studies, the peptide array was blocked with 3% BSA in TBST for 2 hours. Then the array slide was washed 5 times in TBST and subsequently incubated with the target receptor (α11β1, 10 μg/ml dissolved in PBS) for 1 hour at 37° C. The slides were washed with TBST and then incubated with primary antibody (1 μg/ml) against ITGA11 for 1 hour at 37° C. Then slides were washed and incubated with fluorescent dye labeled secondary antibodies for 30 minutes. The slides were washed with TBST and water and then dried and scanned with a microarray scanner to detect binding of the peptides. The enlightened spots were analyzed using ImageJ software. To determine the unspecific binding, a peptide array was incubated with only primary and secondary antibodies without the receptor incubation step. Then, the signal of unspecific binding was subtracted from the total binding to calculate specific binding.

Primed or numbered codes have the meaning given here. Where no end group is shown, it is not given here. PEG(6) = PEG(6) linker

T1 sequence (P08648 42-894 limits assumed): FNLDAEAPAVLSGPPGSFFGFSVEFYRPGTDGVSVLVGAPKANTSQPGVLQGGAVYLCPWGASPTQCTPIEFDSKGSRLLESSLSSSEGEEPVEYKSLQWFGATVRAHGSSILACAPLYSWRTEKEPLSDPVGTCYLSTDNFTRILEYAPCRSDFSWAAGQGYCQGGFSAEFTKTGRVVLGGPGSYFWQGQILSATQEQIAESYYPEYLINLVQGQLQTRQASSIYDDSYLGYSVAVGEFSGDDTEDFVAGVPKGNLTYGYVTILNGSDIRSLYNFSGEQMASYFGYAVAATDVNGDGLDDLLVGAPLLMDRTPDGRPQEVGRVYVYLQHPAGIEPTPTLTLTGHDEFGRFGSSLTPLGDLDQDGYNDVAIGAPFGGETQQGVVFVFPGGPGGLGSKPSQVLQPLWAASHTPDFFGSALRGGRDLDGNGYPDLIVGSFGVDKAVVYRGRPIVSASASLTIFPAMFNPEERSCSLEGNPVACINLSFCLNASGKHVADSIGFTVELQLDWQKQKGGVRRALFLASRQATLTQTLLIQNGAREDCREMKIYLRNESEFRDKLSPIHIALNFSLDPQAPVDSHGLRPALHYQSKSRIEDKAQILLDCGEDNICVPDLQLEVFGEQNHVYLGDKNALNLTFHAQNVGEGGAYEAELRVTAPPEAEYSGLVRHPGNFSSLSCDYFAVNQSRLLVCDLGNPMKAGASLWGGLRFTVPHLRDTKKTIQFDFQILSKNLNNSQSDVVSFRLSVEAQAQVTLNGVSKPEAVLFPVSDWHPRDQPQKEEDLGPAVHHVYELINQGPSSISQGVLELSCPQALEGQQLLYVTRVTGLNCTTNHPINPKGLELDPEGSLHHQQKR
T1 sequence (P08648 895-995 limits assumed): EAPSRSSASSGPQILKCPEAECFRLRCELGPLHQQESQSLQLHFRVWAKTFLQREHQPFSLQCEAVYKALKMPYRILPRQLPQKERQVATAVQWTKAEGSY
T1 sequence (P05556 21-728 partner limits assumed): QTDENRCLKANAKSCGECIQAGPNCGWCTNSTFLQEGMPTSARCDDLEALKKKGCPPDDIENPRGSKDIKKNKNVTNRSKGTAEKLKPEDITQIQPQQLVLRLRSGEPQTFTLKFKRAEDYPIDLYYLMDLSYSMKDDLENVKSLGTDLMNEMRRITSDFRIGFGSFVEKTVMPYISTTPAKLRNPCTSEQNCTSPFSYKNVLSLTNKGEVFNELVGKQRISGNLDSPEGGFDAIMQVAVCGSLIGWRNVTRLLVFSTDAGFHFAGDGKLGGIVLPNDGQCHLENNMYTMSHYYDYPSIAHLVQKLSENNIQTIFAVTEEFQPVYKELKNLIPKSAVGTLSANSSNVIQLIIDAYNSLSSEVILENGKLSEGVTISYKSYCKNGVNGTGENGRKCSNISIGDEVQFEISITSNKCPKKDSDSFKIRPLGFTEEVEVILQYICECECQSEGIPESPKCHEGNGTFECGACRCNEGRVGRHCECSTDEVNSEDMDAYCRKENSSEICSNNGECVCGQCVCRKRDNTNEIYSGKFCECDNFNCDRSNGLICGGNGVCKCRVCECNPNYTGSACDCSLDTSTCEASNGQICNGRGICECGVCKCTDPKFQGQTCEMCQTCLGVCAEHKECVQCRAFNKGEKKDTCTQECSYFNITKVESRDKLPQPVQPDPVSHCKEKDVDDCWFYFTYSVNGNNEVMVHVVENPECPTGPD
Chain of α11β1 receptor (Q9UKX5 23-1141 limits assumed): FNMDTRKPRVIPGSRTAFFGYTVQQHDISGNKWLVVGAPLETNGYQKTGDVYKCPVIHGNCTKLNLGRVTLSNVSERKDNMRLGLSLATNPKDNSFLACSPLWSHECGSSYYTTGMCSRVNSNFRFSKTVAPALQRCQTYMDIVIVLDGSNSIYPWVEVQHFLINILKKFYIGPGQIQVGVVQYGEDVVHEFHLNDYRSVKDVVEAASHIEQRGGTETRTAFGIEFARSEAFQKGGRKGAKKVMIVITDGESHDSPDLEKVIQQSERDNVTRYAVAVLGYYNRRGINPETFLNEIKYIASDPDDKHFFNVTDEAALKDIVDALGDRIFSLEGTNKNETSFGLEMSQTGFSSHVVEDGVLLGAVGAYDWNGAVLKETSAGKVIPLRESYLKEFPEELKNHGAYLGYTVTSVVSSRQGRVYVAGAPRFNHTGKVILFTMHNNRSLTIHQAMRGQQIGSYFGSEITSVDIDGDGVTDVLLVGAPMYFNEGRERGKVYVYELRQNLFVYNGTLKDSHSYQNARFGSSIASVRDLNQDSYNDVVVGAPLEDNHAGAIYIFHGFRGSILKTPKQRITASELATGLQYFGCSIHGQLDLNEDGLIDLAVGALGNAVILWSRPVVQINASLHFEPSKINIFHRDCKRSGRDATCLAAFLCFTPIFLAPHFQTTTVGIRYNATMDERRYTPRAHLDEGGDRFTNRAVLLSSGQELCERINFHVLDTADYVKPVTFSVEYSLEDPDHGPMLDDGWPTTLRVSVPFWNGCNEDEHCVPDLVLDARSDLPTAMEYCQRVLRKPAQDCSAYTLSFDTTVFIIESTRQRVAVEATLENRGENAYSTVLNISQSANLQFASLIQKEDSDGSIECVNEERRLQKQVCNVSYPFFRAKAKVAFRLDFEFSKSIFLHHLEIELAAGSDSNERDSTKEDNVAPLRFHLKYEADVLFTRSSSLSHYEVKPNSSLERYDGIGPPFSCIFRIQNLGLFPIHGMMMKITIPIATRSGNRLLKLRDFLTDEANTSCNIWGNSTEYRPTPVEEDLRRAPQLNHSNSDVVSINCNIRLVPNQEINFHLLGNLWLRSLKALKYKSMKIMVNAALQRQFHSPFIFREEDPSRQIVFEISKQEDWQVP
Chain of α11β1 receptor (P05556 21-728 partner limits assumed): as the sequence (P05556 21-728 partner limits assumed) above
T2 sequence (Q9UKX5 23-1141 limits assumed): as the sequence (Q9UKX5 23-1141 limits assumed) above
T2 sequence (P05556 21-728 partner limits assumed): as the sequence (P05556 21-728 partner limits assumed) above

Regarding GDSPASSKPISI [Seq 5], the “binding to the α5β1 receptor (signal strength)” value (from here on “binding to the α5β1 receptor”) in the test with α5β1 [1] is reported as “GDSPASSKPISI-moderate”.

Take “AXI-I-FITC: AXI-I peptide labeled with PEG(6)-FITC (SGLTEWLRWFNS; also: labeled with PEG(6)-FITC, site not given here)”: the “concentration at which binding reached plateau” value in [2] is on record as 20. Also, the “binding to irrelevant receptor α5β1” value with α5β1 [3] is “very low binding”. Besides, in the test with ITGA11 receptor (α11β1), the “binding to coated ITGA11 (α11β1) receptor” value was “bound to the ITGA11 receptor specifically”.

For SIELTNLLVRYS [Seq 6], the “binding to the α5β1 receptor” value with α5β1 [1] is given as “SIELTNLLVRYS-moderate”.

On to “SFATWTPNFERN (integrin binding peptide) [AXI-II]”, for which the “binding to LX2 hepatic stellate cells” value in [4] was “bound to the stellate cells”.

Consider VALNGREESPLL [Seq 2], for which, in the test with α5β1 [1], the “binding to the α5β1 receptor” value is “VALNGREESPLL-very weak”.

In the case of “YYRITYGETGGN: YYRITYGETGGN with PEG(6)-Fluorescein introduced at the N-terminal side of the peptide (not fully specified (N-terminus))”, the “binding to the coated α5β1 receptor” value with α5β1 [5] is reported as “no binding was observed”.

As for ITANSFTVHWIA [Seq 1], in the test with α5β1 [1], the “binding to the α5β1 receptor” value is given as “ITANSFTVHWIA-weak”.

For TNLLVRYSPVKN [Seq 7], in the test with α5β1 [1], the “binding to the α5β1 receptor” value is “TNLLVRYSPVKN-moderate”.

As to “YYRITYGETGGN (SEQ ID NO:56)-K-PEG(6)-Fluorescein (YYRITYGETGGNK-{PEG(6)-Fluorescein}) [nAV2-FITC]”, the “binding to LX2 hepatic stellate cells” value in test [4] was “clearly bound to these cells”.

Regarding “AV3.3: AV3 variant of FIG. 15 Panel B; possibly third listed peptide, SEQ ID NO:62 (RAYRITY; ITGA5 binding peptide)”, in test [6], the reduction on migration entry is “about 30%”.

As to “TTVRYYRITYGE (integrin binding peptide) [Seq 3]”, in the test with α5β1 [1], the “binding to the α5β1 receptor” value is on record as “TTVRYYRITYGE-strong”.

With “RYYRITYC (integrin binding peptide) [AV3-cys]”, the “expression of fibrotic markers α-SMA, Col-1a1 and vimentin” value in test [7] was “clearly inhibited the expression of these biomarkers”. For the same substance, the “migration of fibroblasts (wound closure)” value in test [6] is listed as “significantly inhibited the migration of fibroblasts”.

As for “YYRITYGETGGN (ITGA5 binding peptide) [nAV2]”, the “binding to the α5β1 receptor” value with α5β1 [1] is “YYRITYGETGGN-very strong”. Also, the “binding to the coated α5β1 receptor” value in the test with α5β1 [5] is “good binding”. Moreover, the “blocking of nAV2-PEG-fluorescein binding to coated α5β1 by excess unlabeled peptide” value with α5β1 [5] (excess (10-fold) of unlabeled peptide) was “blocked”.

Consider LTEWLRWF (ITGA11 binding peptide), for which, in the test with α11β1 receptor, the “binding to the α11β1 receptor on peptide microarray” value is on record as “strongest binding”.

Source of the values: patent US11634470B2, “Integrin binding peptides and uses thereof” (Universiteit Twente, priority 2015, dated 2023).
